In the test the target is T1, PD-1 on circulating T cells of patients (human, UniProt Q15116 25-288).
T1 construct: whole, on cells; Probably the same protein as m2
Kind of test: receptor occupancy by flow cytometry on blood of patients treated with DART-D. How it is done:
Receptor Occupancy (RO): One hundred microliter […] volumes of whole blood samples (per time point/per patient) were incubated with saturating concentration of DART-D, followed by lysis and detection of DART-D by biotinylated anti-drug mAb/Strep-PE in “DART-D-spiked” and control samples. After subtraction of background fluorescence (Step-PE only), RO values were calculated as a fraction of maximal binding capacity: RO=(untreated MFI(PE)−background MFI(PE))/(treated MFI(PE)−background MFI(PE)).

T1 sequence (Q15116 25-288): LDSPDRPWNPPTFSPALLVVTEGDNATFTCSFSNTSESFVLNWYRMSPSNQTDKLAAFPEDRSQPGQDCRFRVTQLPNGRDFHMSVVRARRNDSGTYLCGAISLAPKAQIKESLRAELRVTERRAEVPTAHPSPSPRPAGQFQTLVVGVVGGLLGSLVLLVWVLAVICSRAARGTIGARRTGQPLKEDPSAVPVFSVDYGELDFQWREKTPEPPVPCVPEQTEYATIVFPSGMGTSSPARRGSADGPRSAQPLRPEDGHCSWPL

B1: DART-D (bispecific antibody, human IgG4 S228P)
chain 1: EIVLTQSPATLSLSPGERATLSCRASESVDNYGMSFMNWFQQKPGQPPKLLIHAASNQGSGVPSRFSGSGSGTDFTLTISSLEPEDFAVYFCQQSKEVPYTFGGGTKVEIKGGGSGGGGQVQLVESGGGVVQPGRSLRLSCAASGFTFSSYTMHWVRQAPGKGLEWVTFISYDGSNKHYADSVKGRFTVSRDNSKNTLYLQMNSLRAEDTAIYYCARTGWLGPFDYWGQGTLVTVSSGGCGGGEVAACEKEVAALEKEVAALEKEVAALEKESKYGPPCPPCPAPEFLGGPSVFLFPPKPKDTLYITREPEVTCVVVDVSQEDPEVQFNWYVDGVEVHNAKTKPREEQFNSTYRVVSVLTVLHQDWLNGKEYKCKVSNKGLPSSIEKTISKAKGQPREPQVYTLPPSQEEMTKNQVSLTCLVKGFYPSDIAVEWESNGQPENNYKTTPPVLDSDGSFFLYSRLTVDKSRWQEGNVFSCSVMHEALHNHYTQKSLSLSLG
chain 2: not shown
notes: Tetravalent (2x2) four-chain Fc-bearing diabody, two sites for PD-1 and two for CTLA-4; also called MGD019; PD-1×CTLA-4 bispecific molecule
For B1, the binding result is “binds”.

Source of the values: patent publication US20230312756A1 (MacroGenics, published 2023).
